# According to the supplement of paper PMC9732359:
# ± gives the uncertainty stated by the source.
# Test: protein stability index of a GFP-peptide fusion (yeast GPS) (PSI 1-4); higher = more stable; sorted into four equal gates, so the index is relative within each strain
# Settings: ubr1∆
# Method in brief: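 Sequencing reads from sorted gates were used to score each peptide. The library consisted of tiled 17-residue yeast protein peptides fused downstream of GFP on a Cherry-expressing plasmid, pooled and carried in yeast. Mid-log cultures in leucine-free medium were split into four equal gates by GFP/Cherry ratio, and each gate's plasmids were PCR-amplified and Illumina-sequenced. The protein stability index adds up, over all gates, the read frequency multiplied by the gate number.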
row,Sequence,protein stability index
1,NEKFEIELLSLDDDSIV [SRB4],3.1 ± 0.1
2,NEQLTLLSKKHGQLKLS [RPN5],2.4 ± 0.079
3,NEWIKAQEDVPYLLPYI [QCR7],2.5 ± 0.056
4,NEYRLAFYQVTPEEDEE [RPL22A],2.69 ± 0.087
5,NFARQLLFNNDFPLLKV [RRP40],2.12 ± 0.037
6,NFGGGNNTTPSSTGNAN [YJL041W/NSP1],3.06 ± 0.071
7,NFHNSKKRMNSNQERCH [RRI1],2.99 ± 0.07
8,NFKDMSHVNKYGLIRGL [PRP8],1.16 ± 0.032
9,NFLQESYEVEHVIQIPL [TAF14],2.81 ± 0.082
10,NFPDEDDDDSRKSAPVD [SKP1],3.27 ± 0.041
11,NFTCNRKILNFKKDLVI [SWI1],2.87 ± 0.075
12,NFYLKRFISDLLWLVLI [SWI1],1.59 ± 0.046
13,NGAFQNSSNLSYNNTGI [RRP4],2.84 ± 0.055
14,NGEEDEVALFSQKAKLM [YLR335W/NUP2],1.17 ± 0.094
15,NGERKFLKEKDTVAELQ [FAS2],3.02 ± 0.076
16,NGNKDSSFNFNKNLPFV [SWI1],3.31 ± 0.043
17,NHMLIDSLNQLEIRNKI [RGR1],3.08 ± 0.076
18,NHNKTKLLKSLKNTKYF [PRP8],2.15 ± 0.073
19,NHTAHNQTRKAHRNGIK [RPL29],2.57 ± 0.052
20,NIDYQKGLLIWRLLFID [GRR1],1.45 ± 0.068
21,NIGETAGVVQDIGSDPT [RPB9],2.92 ± 0.056
22,NIKKKDTKDALSTRELA [RPC53],2.7 ± 0.29
23,NILIASLMDTLITPAVR [YCG1],1.78 ± 0.055
24,NILLRERDSYKLLASTE [YIL149C/MLP2],2.4 ± 0.055
25,NILNMSMNNDFQQQQQQ [PGD1],2.67 ± 0.071
26,NINATNTSVLMKLKLMI [YCS4],2.24 ± 0.077

row,Sequence,protein stability index
1,NIQGITKPAIRRLARRG [HHF1],3.35 ± 0.066
2,NIQHLLYGKRFFPYYVH [PRE7],1.3 ± 0.039
3,NISGEFFRNKLKYHDFL [RPL16B],1.79 ± 0.044
4,NISIITLELESFLEGSK [RGR1],2.94 ± 0.071
5,NISSSQQLLPAPQLFPY [DSN1],2.84 ± 0.086
6,NIVHNFKERQMMVSYPK [AAR2],2.19 ± 0.18
7,NKDSIEECGRTIHRSFT [CSN12],3.12 ± 0.046
8,NKEGTLEQREQNENLPS [SSN2],3.05 ± 0.057
9,NKGELETQPGCNEEQTL [RPO31],3.2 ± 0.082
10,NKGLVVSPYDYNHKRVS [DIB1],2.33 ± 0.087
11,NKIKLNILKILSSLILK [SRB8],1.87 ± 0.053
12,NKLFTEPIKLEPVKEYT [YMR129W/POM152],2.4 ± 0.072
13,NKLLGNVTIAQGGVLPN [HTA1],1.61 ± 0.033
14,NKLTGKQIVFEIPSETH [RPS7A],2.78 ± 0.11
15,NKLTGKQIVFEIPSQTN [RPS7B],2.66 ± 0.086
16,NKLVMKSKFNKSNRSYS [GAL11],3.01 ± 0.053
17,NKNQLLKRNRIRNARSI [POP1],3 ± 0.055
18,NKPAIKEDSTIQDSNGD [SWI3],3.04 ± 0.054
19,NKQSVSNLSPDLKFKRH [DSN1],2.34 ± 0.2
20,NKSFIVDQGQIYRDRST [ITC1],3.32 ± 0.052
21,NKTLTFETETEVTFKNA [FAS1],3.35 ± 0.049
22,NKVCRIEAASTTQDQCK [RPB8],2.93 ± 0.063
23,NKVSYYGNPTSKESWRY [RTT102],3.42 ± 0.098
24,NLDGTKAVKLRKSYKNQ [ROX3],3.58 ± 0.046
25,NLKVELKEQSEQLKEQM [SMC4],3.2 ± 0.057
26,NLLCYYNLRSLNLINAK [RPN3],1.25 ± 0.041

row,Sequence,protein stability index
1,NLLIQRLNFNQNSSKIV [SWI3],2.93 ± 0.041
2,NLMGNRNNHNSNTSTSK [SNF12],3.07 ± 0.054
3,NLNDKFGIYILTQGING [MED1],1.43 ± 0.031
4,NLQAKPLVGKPKTELTK [YAR002W/NUP60],2.39 ± 0.1
5,NLQGDLQAIQEKLNKTD [ITC1],3.2 ± 0.16
6,NLQIRQLFNWCLMRSLH [DSN1],1.12 ± 0.13
7,NLSLYEATAASHERFFL [CSN12],2.62 ± 0.065
8,NLSSLIVEINNVSNTFN [YJL041W/NSP1],2.58 ± 0.032
9,NLTYYNEKLECISLGST [ITC1],2.45 ± 0.04
10,NLVSLLIIVTRKNYMHV [YML031W/NDC1],1.3 ± 0.033
11,NNDLESVSMLLQYYILE [RRI2],3.122 ± 0.031
12,NNESSDDMDIDEVNDRS [PCI8],3.09 ± 0.081
13,NNGNNSTSIQYHGISKN [POP6],2.22 ± 0.07
14,NNIIAEGIEKMGVRTFS [FAS2],2.69 ± 0.12
15,NNKILEKCKEINVETVY [BRR2],2.06 ± 0.067
16,NNKNNSITTGNDNENIV [MED2],2.99 ± 0.046
17,NNNNKSINKNNKEMHTD [SSN2],3.17 ± 0.093
18,NNNNNNNDDNGNNNNNN [MED2],3.286 ± 0.023
19,NNNNSNNHNMRNNSNNK [SWI1],2.764 ± 0.021
20,NNPLLLIVDVKQQGVGL [RPN8],2.15 ± 0.1
21,NNRQLPYLVANVVEVMD [RPT5],2.71 ± 0.074
22,NNSEQDQEIVIQQLHSV [ISW2],2.53 ± 0.038
23,NNSLSYHSGRLLIQGPK [ITC1],2.93 ± 0.051
24,NNSNSNNNDNNNSNTVA [SWI1],3.13 ± 0.045
25,NNTTPSSTGNANTSNNL [YJL041W/NSP1],3.37 ± 0.07
26,NNYKDLLAVAIAASYHY [RPP0],1.64 ± 0.068

row,Sequence,protein stability index
1,NPNSTAITADLGSSEAE [YGL172W/NUP49],2.76 ± 0.12
2,NPRKRAIPNSIIKRSNG [YMR153W/NUP53],2.92 ± 0.12
3,NPTKSKEILDNILPFLW [ECM29],2.61 ± 0.085
4,NPYSSYVSQIRKHKRVS [YAR002W/NUP60],2.38 ± 0.067
5,NQGVNELKYQRSLRATA [RPL15A],1.11 ± 0.05
6,NQINSFWSLHSSTYYNL [NUT1],1.57 ± 0.036
7,NQKTSAVAALTEVRAED [RPL8A],2.68 ± 0.087
8,NQLVEPNRIKLSKEVPF [SRB5],2.23 ± 0.025
9,NQMGMGTNNGMSMGGGV [YOR098C/NUP1],3.24 ± 0.11
10,NQNTLKEISARRYKLLT [POP1],2.65 ± 0.045
11,NQQQQQQQQQQQQRRQL [GAL11],2.91 ± 0.051
12,NQSSFNFGNNGAGGLNP [YOR098C/NUP1],3.25 ± 0.064
13,NQTIKEAKDAIIELENI [YIL149C/MLP2],2.89 ± 0.065
14,NRTLYELADLPKLKRIG [GRR1],3.02 ± 0.042
15,NRVGLTLDNIDDINKAK [ARP9],2.43 ± 0.034
16,NSADVDMDAQGRSDSNT [YGL100W/SEH1],3.29 ± 0.061
17,NSEISNLPKDKSGIPEF [SSN2],3.33 ± 0.076
18,NSEYLKRRVTNLEFNYT [SMC2],2.49 ± 0.084
19,NSIDSTSRIELELKNIG [ECM29],2.72 ± 0.044
20,NSIESKNLSLQTGTKPV [COR1],2.85 ± 0.042
21,NSIWGSSLRKNASGNKR [ITC1],1.86 ± 0.044
22,NSLLLDSTPEEVSCKLL [YML103C/NUP188],2.71 ± 0.08
23,NSLSSNLSSLIVEINNV [YJL041W/NSP1],2.41 ± 0.033
24,NSQLVGKPHFSLLGGFD [PCI8],2.54 ± 0.053
25,NSSNLSYNNTGISDDEN [RRP4],2.79 ± 0.06
26,NSTNSNTTKPAFGGLNF [YJL041W/NSP1],3.47 ± 0.076
